Reference: a protein production outcome set (Wang et al. 2014)

Assay: label from the status in PepcDB records
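Note: failed if final PepcDB status was selected cloned or expressed and not failed if soluble or beyond.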

Row | Sequence | protein production
1 | MMTPSRAEKSLTIVIPALNEQDKIADTIDGVLPLARELLDDFEIFLIDDGSTDATGAIMNEFAASDRRITVHHNAERRGVGAGFEYALSRAKFDAITLIPGDHAFQNEGIARMFKAVGAADMVITYRDNQSDRSVNRSIQSHSLRFVLNCMFGFWLSDYHSMIVYPVKWLRQIAVRADGYGYQICALISLLQLGLTYVQVPVSLNAELKGSSRALRLRTYLELIGTIVSLLRRVPIRDVDRDQVPVDAGRTPAR | failed
2 | MISILRRGLLVLLAALPLLANAASTPSAHDLVQDTTTRLLADLAANKEKYKQSPNDFYNALNSIVGPVVDADGISRSIMTVKYSRKATPEQMVRFQENFKRSLMQFYGNALLEYNNQGITVSPAKDESGTRTSVDMQVKGNNGAIYPVSYTLEKINDEWKVRNVIINGINIGKLFRDQFADAMQRNGNNLDKTIDGWAGEVAKAKEVTEDAAQKAAQLEHHHHHH | not failed
3 | MVTQEQRRRQLAREKFLRQQQRRTSARRKARMRNAAIASVLGVILIGSVALYTTGVVLGDDDDKTNAGAEVTPSASAPSKAPDPCDKPADGKVKTQTWKKEPAMTVDKSAKYTMKLATTCGDIDLALKADAAPHTVNSFDFLAGKGYFDHTKCHRLTTEGIYVLQCGDPTAQGNGGPGYNIPDENLKDKSLKDNVYPAGTVAMANTGQPDSGGSQFFLVYQDSQLPPSYTPFGTVSKEGMTVLKKIASAGAQPADPTTGNTAPNATVVIDKATVSKS | failed
4 | MVNIFWFSLAVIIYSYFIYPFILLIFSAVKQAISDTRYLWKKSQRRVVDKDNLPPVSIIIAAYNEESCIKARVENLLSLDYPQDKLTILIGSDGSQDKTAEILTSFDAVNLKVHIFEKNRGKMSVLNDLVEQVNSDYIVFSDANTHFNKNTIEYLVRHFNHDNIGAVCGELHLVDVDSGDNKDNIYWRYEQVLKFHEARLNALQGANGAIYAIRKELFIPLPANTIVDDFQIAMNVAKQGFRLIYDPEAIAIEEIAPNLQAEEGRRVRIGLGNYQALFTMAWALNPLLGWRFIAYISHKVCRWFVPHLMLITLISNLLLISNPLYQLLFIGQILFYSVAFYGIKKQQKRQKVSSIIGIIAFFVSMNIALMRGFIRYFSSNVQGTWERTTR | failed
5 | MSLDSRKPGHRPVTMRDVAKAAGVSRMTVSRALKKDSPISSETRERILKVVKDMNYVPDQVAGSLTTKRSGFVGLLLPSLNNLHFAQTAQSLTDVLEQGGLQLLLGYTAYSPEREEQLVETMLRRRPEAMVLSYDGHTEQTIRLLQRASIPIVEIWEKPAHPIGHTVGFSNERAAYDMTNALLARGFRKIVFLGEKDDDWTRGAARRAGFKRAMREAGLNPDQEIRLGAPPLSIEDGVAAAELILQEYPDTDCIFCVSDMPAFGLLSRLKSIGVAVPEQVSVVGFGNFEVSRFASPEISTVRVDPIAIGRETGSLILRLLDPKQRSPQTAQHITLPPVLEFRPSLKNEGHHHHHH | not failed
6 | MTQTQSLALYTVAILVGALTGGSLPLLGRVGRSDIGLSFSAGVMLGAAFFHMLPEAVEESGAGILPFVLVGFLLLFLLERFVLVHVCAEPGPNARLSQAAPLPAGIEAGHGHDHHHHGHAHVATGGALALEDDGTGCAVHTTLGLAAFLGMSAHTLVDGFALGAASGQAELGLLVFLAILAHKIPNSFSLSAILRAEGYSRGRALAMNAVFALMVPVGAGIYLVLRELVRVETFTAAALAASAGTFLHLSLSDILPDLHRRGGSKWVLSGALLAGLAVMWGLRALNHAH | failed
7 | MVDQNPEEYYSKGILQYDDGNYTESIDLFEKAIQLNPEESKYWLMKGKALYNLERYEEAVDCYNYVINVIEDEYNKDVWAAKADALRHIEGKEVEAEIAEARAKLEHHHHHH | not failed
8 | VDWTDAERSAIVGLWGKISVDEIGPQALARLLIVSPWTQRHFSTFGNLSTPAAIMGNPAVAKHGKTVMHGLDRAVQNLDDIKNTYATLSVMHSEKLHVDPDNFRLLADCITVCVAAKLGPAVFSADTQEAFQKFLAVVVSALGRQYH | not failed
9 | MRKSDREAFLSSVLGNEQPPAHLARTVIEEKLRNAIIDGSLPSGTALRQQELATLFGVSRMPVREALRQLEAQSLLRVETHKGAVVAPLITEDAVDAYALRILLESEALRLSIPLLDADDLAAAASYIEQLEVETDFGQIGRLNRMFHLSLYAKTHNKRLMRLVEEGLNEEERFLRFNLSSMGLGKLSQDDHWQLLRLAEQKAVEPCVEALQYHLNRGVQAVTQYLQSQKAGNVKPARTKKNTPA | not failed
10 | MMSTPALRPYLPEDAAVTAAIFVASIEQLTADDYSEEQQEAWASAADDEAKFAARLSGQLTLIATLQGVPVGFASLKGPDHIDMLYVHPDYVGRDVGTTLIDALEKLAGARGALILTVDASDNAAEFFAKRGYVAKQRNTVSINGEWLANTTMTKSLADSAAPGASS | not failed
11 | SANSGCKDVTGPDEESFLYFAYGSNLLTERIHLRNPSAAFFCVARLQDFKLDFGNSQGKTSQTWHGGIATIFQSPGDEVWGVVWKMNKSNLNSLDEQEGVKSGMYVVIEVKVATQEGKEITCRSYLMTNYESAPPSPQYKKIICMGAKENGLPLEYQEKLKAIEPNDYTGKVSEEIEDIIKKGETQTL | not failed
12 | MSLTLRVLAPDQNVFDGSADEVILPSTTGQLGILPGHISLLTAIDVGVLRVRANGGWNSIALMGGFAEVDADEVTVLVNQAELGSTIDGNTAEADFQKATTVVDGLEGQPASPEKVKAQQQLNMARARMQASKSAD | failed
13 | MNYQDVLDFWFAPDHTNFWFAKDSLFDDEIRTQFSTVHQQATQAELWSWRQTVEGRLAEIIVLDQFSRNLYRDQAQAFAQDSMALALAQEAITQQLDAQLSPEQRSFLYMPFMHSESKLIHEFALKLFQKLGNEINLSFEKKHKVIIDQFGRYPHRNAILGRQSTPEELEFLTQPNSHF | failed
14 | MSSLKGHPKGLYLIFATSTAERFSYYGMRAIFILFLTQALLFDKEAAASIYGSYTGLVYLTPLIGGYIADKYWGIRRSVFWGAVMMAVGQFLMFMSASSLNNTDLAHWLMYGGLGFMILGNGCFKPTVSSLVGQLYEPGDKRLDAAYTIFYMGVNVGSFAAPLICGFLGDTGNPQDFKWGFLASGIMTLFTVVLFETQKNKYLFSPSGEPIGIVPDARREKKEDKAEHISHPKMDKRTKVRNIIIITALTVALIAFFSYAFSDDWISVGIFTACIVFPVLILLDGSLTKVERSRIFVIYIVAFFVIFFWAAYEQAGASLTLFASEQTDRSIFGWEMPASWFQSFNPLFVVILAYIMPGIWGFLNKRNMEPASPTKQAIGLLLLSLGYLFICFGVKDAIPGVKVSMIWLTGLYFIHTMGEIALSPIGLSMVNKLSPLRFASLMMGIWYLSTATANKFAGMLSGLYPEDGKVKSILGYQIATMYDFFMLFVIMSGVASLILFLLSKKLQKMMHGVE | failed
15 | MRGLSRNSGAAAIFAILLILAVHNWSVAVSSQSTEFAGDFPPFETECRGTIAECSVSAALGDGGDLFYGGGEMGEEFEMDSEINRRILATRRYISYGALRRNTIPCSRRGASYYNCRRGAQANPYSRGCSAITRCRRS | failed
16 | MMNETLKVIAERYSCRDFKNEMPSDELLQAIAEAAIQAPSGMNRQAWRVIVVKNKELMQEMEAEGLAYLAGMEDQSSYNRIMERGGRLFYGAPCMIVVPIDPTQYGPALVDCGILCQTIALAATSLGIANIMCGYTGLAFASGLRAEEFSKRLGFPEGYAFGCSVLLGHANTTKPPHVPDKDKITYVE | not failed
17 | MEDKFANLSLHEKTGKSSIQLNEQTGSDNGSAVKRTSSTSSHYNNINADLHARVKAFQEQRALKRSASVGSNQSEQDKGSSQSPKHIQQIVNKPLPPLPVAGSSKVSQRMSSQVVQASSKSTLKNVLDNQETQNITDVNINIDTTKITATTIGVNTGLPATDITPSVSNTASATHKAQLLNPNRRAPRRPLSTQHPTRPNVAPHKAPAIINTPKQSLSARRAVKLPPGGMSLKMPTKTAQQPQQFAPSPSNKKHIETLSNSKVVEGKRSNPGSLINGVQSTSTSSSTEGPHDTVGTTPRTGNSNNSSNSGSSGGGGLFANFSKYVDIKSGSLNFAGKLSLSSKGIDFSNGSSSRITLDELEFLDELGHGNYGNVSKVLHKPTNVIMATKEVRLELDEAKFRQILMELEVLHKCNSPYIVDFYGAFFIEGAVYMCMEYMDGGSLDKIYDESSEIGGIDEPQLAFIANAVIHGLKELKEQHNIIHRDVKPTNILCSANQGTVKLCDFGVSGNLVASLAKTNIGCQSYMAPERIKSLNPDRATYTVQSDIWSLGLSILEMALGRYPYPPETYDNIFSQLSAIVDGPPPRLPSDKFSSDAQDFVSLCLQKIPERRPTYAALTEHPWLVKYRNQDVHMSEYITERLERRNKILRERGENGLSKNVPALHMGGL | failed
18 | MSLAHKFDPSKIKKLDDPSRLELFDPEKVLKEFGLKEGMTVLDVGTGAGFYLPYLSKMVGEKGKVYAIDVQEEMVNYAWEKVNKLGLKNVEVLKSEENKIPLPDNTVDFIFMAFTFHELSEPLKFLEELKRVAKPFAYLAIIDWKKEERDKGPPPEEVYSEWEVGLILEDAGIRVGRVVEVGKYCFGVYAMIVKQEEENPLMNVPFKIPPGEGHHHHHH | not failed
19 | MEERNEQVVEEVKEEVKEAQVEEAVTSEDSEESVEEKSEAALLQEKVDELQAKLTETEGRMLRLQADFENYKRRVQMDKQAAEKYRAQSLVSDILPALDNFERAMQVEANDEQMKSLLQGMEMVYRQLLEAMTKEGVEAIEAVGKQFDPHEHQAVMQVEDSEFESNAVVEEFQKGYKLKDRVIRPSMVKVNQ | failed
20 | MKQPLRVLISCRPEENSGGKRSEQNDAVFEFAAWLARTSDINVRGITTFIRPWPSSSISKLGGKYHKWYKNLDSYYRSRTIKGLKEAGVEKSQWDDDVSVFVDGPSESTLLTHAAEEFEADLILLGSDATAPKGRFLASSTADALLHSSPVPLGLVPRGVKLSKKGVTRVNYAFTNESDDFEQGLRSSAELATNWNVPLRILAFSPTGITSAPTSRSLDISTELSSEWRELTLAMLDRARDGVLTDHPNLSVSSETGSGWGWSGAIDALRWKKGDLLCMGSHRTDTLSRVFVGSETMEIIRNSPVPTIIYPGL | failed
21 | MLNAKTSFALLMAVCLIATGVTGYLLGGINPELIQAWLKAAGIWAPVTYVAVYVVATILILPSTALNLTGGAIFGPWMGTFWTSVGAIIAAIAAFIFARTVGREIVAQRLAGRWQAIDAEVRQGAVFYMFAIRLMPILPYGLVNFAAGLTSISFKDYLIGTALGTVPGILPFVLLGSSGLKAIRTGEVLPLVGALALIGMLVGGSTWYRRRRSFPTRKKP | failed
22 | MMIVYKGEKMQFIRVNTLKINPEVLKKRLENKGVVLEKTFLDYAFEVKKSPFSIGSTPEYLFGYYMPQSISSMIPPIVLNPREDDFILDMCAAPGGKTTHLAQLMKNKGTIVAVEISKTRTKALKSNINRMGVLNTIIINADMRKYKDYLLKNEIFFDKILLDAPCSGNIIKDKNRNVSEEDIKYCSLRQKELIDIGIDLLKKDGELVYSTCSMEVEENEEVIKYILQKRNDVELIIIKANEFKGINIKEGYIKGTLRVFPPNEPFFIAKLRKI | not failed
